Laboratory results as given in patent publication US20080207488A1, “Method for Detecting Peptides Comprising a Cross-B Structure” (priority 2005, published 2008).

B1: dOVA: ovalbumin heat-denatured at 85° C., amyloid-like (protein)
chain: GSIGAASMEFCFDVFKELKVHHANENIFYCPIAIMSALAMVYLGAKDSTRTQINKVVRFDKLPGFGDSIEAQCGTSVNVHSSLRDILNQITKPNDVYSFSLASRLYAEERYPILPEYLQCVKELYRGGLEPINFQTAADQARELINSWVESQTNGIIRNVLQPSSVDSQTAMVLVNAIVFKGLWEKAFKDEDTQAMPFRVTEQESKPVQMMYQIGLFRVASMASEKMKILELPFASGTMSMLVLLPDEVSGLEQLESIINFEKLTEWTSSNVMEERKIKVYLPRMKMEEKYNLTSVLMAMGITDVFSSSANLSGISSAESLKISQAVHAAHAEINEAGREVVGSAEAGVDAASVSEEFRADHPFLFCIKHIATNAVLFFGRCVSP
B2: alkyl-β2gpi: reduced and alkylated human β2-glycoprotein I (protein, UniProt P02749 20-345, looked up)
Beta-2-glycoprotein 1: GRTCPKPDDLPFSTVVPLKTFYEPGEEITYSCKPGYVSRGGMRKFICPLTGLWPINTLKCTPRVCPFAGILENGAVRYTTFEYPNTISFSCNTGFYLNGADSAKCTEEGKWSPELPVCAPIICPPPSIPTFATLRVYKPSAGNNSLYRDTAVFECLPQHAMFGNDTITCTTHGNWTKLPECREVKCPFPSRPDNGFVNYPAKPTLYYKDKATFGCHDGYSLDGPEEIECTKLGNWSAMPSCKASCKVPVKKATVVYQGERVKIQEKFKNGMLHGDKVSFFCKNKEKKCSYTEDAQCIDGTIEVPKCFKEHSSLAFWKTDASDVKPC
modifications: reduced and alkylated
notes: reduced and alkylated human β2-glycoprotein I

Columns and labels:
[1] = system: human tissue-type plasminogen activator finger EGF (tPA F-EGF) fragment; assay: ELISA, binding of tPA F-EGF to coated (mis)folded proteins; conditions: coated protein, FIG. 7A, I
Chain of human tissue-type plasminogen activator finger EGF (tPA F-EGF) fragment (P00750 39-120 limits assumed): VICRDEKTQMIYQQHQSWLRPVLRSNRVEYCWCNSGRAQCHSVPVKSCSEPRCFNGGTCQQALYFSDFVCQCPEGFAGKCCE
Description: (§1) The plates were blocked using Blocking reagent (Roche 1112589). A dilution series of the protein of interest was applied to the coated proteins and wells were subsequently washed using TBS-T (50 mM Tris pH 7.3, 150 mM NaCl and 0.1% Tween20). Bound protein is detected by the FLAG-tag using 1:3000 anti-FLAG-HRP (Sigma A-8592) in PBS-T, or by 1:1000 Ni-NTA-HRP (Qiagen 34530) in PBS-T. The HRP reaction Is performed using the TMB substrate (Biosource 4501103 or Tebu Bio 101TMB100-500), stopped using 10% H2SO4 and absorbance was measured at 450 nm.

[2] = system: Balb/c mice; assay: Immunization of Balb/c mice with ovalbumin and amyloid-like ovalbumin; format: in vivo; conditions: without adjuvant
Description: Eight to ten weeks old female Balb/c mice are immunized with OVA according to two immunization regimes (Central Animal Laboratories, Utrecht University, The Netherlands). Pre-immune serum was collected prior to the immunizations. In one regime two groups of five mice were subcutaneously injected five consecutive days per week, for three consecutive weeks. Doses comprised 10 μg native OVA or heat-denatured OVA for each injection. Alternatively, according to the second protocol, three groups of five mice were injected once intraperitoneally with doses comprising 5 μg nOVA, 5 μg OVA or 5 μg native OVA mixed 1:1 with complete Freund's adjuvant (CFA). Each week, blood was taken. After three weeks, a second dose was given. Incomplete Freund's adjuvant (IFA) was used instead of CFA. Blood was taken after one week after the start of the immunization. Antibody titers in sera were determined and sera were analyzed for the presence of cross-β structure conformation specific antibodies. For this purpose, nOVA was coated onto wells of 96-wells ELISA plates and incubated with dilution series of sera. Sera of the groups of five mice were pooled prior to the analyses. Plates were washed and subsequently incubated with peroxidase-conjugated rabbit anti-mouse immunoglobulins (RAMPO, P0260, DAKOCytomation, Glostrup, Denmark). Plates were subsequently developed with tetramethylbenzidine (TMB) substrate. […]

[3] = Thioflavin T fluorescence; format: physicochemical
Description: Fluorescence of ThT-protein/peptide adducts was measured as follows. […] Fluorescence was measured at 485 nm upon excitation at 435 nm. Background signals from buffer, buffer with ThT and protein/peptide solution without ThT were subtracted from corresponding measurements with protein solution incubated with ThT. […] Fluorescence was measured in triplicate on a Hitachi F-4500 fluorescence spectrophotometer (Ltd., Tokyo, Japan).
Formulated protein therapeutics were obtained from the local hospital pharmacy and were used as supplied by the manufacturers. […] Lyophilized therapeutics were dissolved according to the manufacturers recommendations. […] Enhancement in fluorescence of ThT and Congo red was measured with all formulated protein therapeutics. […]
To prepare structurally altered ovalbumin (OVA) with amyloid cross-β structure conformation, purified OVA (Sigma, A-7641, lot 071k7094) was heated to 85° C. […] Native OVA (nOVA) and heat-denatured OVA (dOVA) were tested in the ThT fluorescence assay and in the Plg-activation assay. In the fluorescence assay and in the Plg-activation assay, 25 and 100 μg ml^−1 nOVA and dOVA were tested, respectively. […] In the ThT-fluorescence assay 25 μg ml^−1 nMSA and alkyl-MSA were tested, and in the Plg-activation assay 100 μg ml^−1 was tested. The presence of aggregates or fibrils was analyzed using TEM. […]

[4] = target: T1, human fibronectin finger 4,5 (Fn F4,5) fragment (Homo sapiens, UniProt P02751); assay: ELISA, binding of fibronectin F4,5 to coated (mis)folded proteins; conditions: coated protein, FIG. 7D-H
T1 construct: human fibronectin finger 4,5 (Fn F4,5) fragment; made in house; host or cells: HEK293E cells, transient transfection, protein purified from the medium
T1 sequence (P02751 182-276 limits assumed): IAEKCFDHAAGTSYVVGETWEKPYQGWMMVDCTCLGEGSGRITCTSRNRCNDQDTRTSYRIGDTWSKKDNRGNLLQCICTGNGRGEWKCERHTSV
Description: as §1

[5] = system: Balb/c mice; assay: Immunization of mice with β2gpi preparations, serum binding to murine β2gpi; format: in vivo; conditions: 100-fold diluted sera
Description: Female BalB/C cAnNHSd (Harlan) 7-9 weeks were housed in filtertop cages in groups of 5 mice per group. After approximately one week of adjustment to the environment, pre-immune sera were drawn. On the start of the first week, mice were given either 100 μl plasma (150 μg/ml) β2-Glycoprotein 1,100 μl alkyl-β2-Glycoprotein I (150 μg/ml) or 100 μl of a mixture of 150 μg/ml of 82-Glycoprotein I with 9.33 μM cardiolipin (CL-β2gpi). This latter sample was prepared by pre-incubating 400 μg/ml of 62-GPI with 25 μM of cardiolipin vesicles for at least 10 minutes at RT after mixing the sample by pipetting; afterwards samples were diluted to 150 μg/ml. […] All dilutions were made freshly in TBS and kept on ice. Injections were given intravenously in the tail veins of the mice and given on Mondays and Fridays of the first and third week. Blood was drawn three days prior to the experiment, and on Wednesdays of week 2 and 4 by puncture of vena Saphena. Blood was collected in Easycollect tubes, with Z serum clot activator. Sera were prepared by centrifugation in a tabletop centrifuge, with a rotor diameter of 7 cm, at 3800 rpm for 10 minutes (slow start and stop) and stored at −20° C. before analysis.
In this way, it was determined whether immunizations of mice with human β2gpi elicits a humoral auto-immune response against murine β2gpi.

[6] = system: Balb/c mice; assay: Immunization of mice with β2gpi preparations, titers against native human β2gpi; format: in vivo; conditions: four injections of 15 μg antigen
Description: Female BalB/C cAnNHSd (Harlan) 7-9 weeks were housed in filtertop cages in groups of 5 mice per group. After approximately one week of adjustment to the environment, pre-immune sera were drawn. On the start of the first week, mice were given either 100 μl plasma (150 μg/ml) β2-Glycoprotein 1,100 μl alkyl-β2-Glycoprotein I (150 μg/ml) or 100 μl of a mixture of 150 μg/ml of 82-Glycoprotein I with 9.33 μM cardiolipin (CL-β2gpi). This latter sample was prepared by pre-incubating 400 μg/ml of 62-GPI with 25 μM of cardiolipin vesicles for at least 10 minutes at RT after mixing the sample by pipetting; afterwards samples were diluted to 150 μg/ml. […]
Sera were analyzed for antibodies against unmodified native (coated) β2-GPI. […] Antibody titers were determined by adding pooled sera of each experimental group (n=5) in three-fold serial dilutions (starting from 1:30, 50 μl/well) to plates coated with native human β2gpi. […] The plates were stained for approximately 5 minutes using 100 μL/well of TMB substrate (Biosource Europe, Nivelles, Belgium), the reaction was stopped with 50 μL/well of 2 M H2SO4 and read at 450 nm on a Spectramax340 microplate reader. The absorbance values were plotted against log dilution. […] For comparison, the dilution that yielded a residual absorbance after background subtraction of 0.1 was arbitrarily taken as the titer of the various sera.

Row | Molecule | binding of tPA F-EGF [1] | anti-nOVA antibody titers in pooled sera [2] | ThT fluorescence enhancement of native and denatured proteins ([3]; 25 μg ml^−1) | affinity of fibronectin F4,5 (detection anti-FLAG HRP) [4] | titers against mouse self-β2gpi [5] | humoral immune response compared to native β2gpi [6] | Thioflavin T fluorescence of modified β2gpi ([3]; compared with native β2gpi)
1 | B1 | Much lower binding | higher antibody titers | filtration through a 0.2 μm filter does not reduce the enhancement of ThT fluorescence | clear difference in binding affinity | – | – | –
2 | B2 | – | – | – | – | higher titers against mouse self-β2gpi | far higher humoral immune responses | enhanced Thioflavin T fluorescence
